Test results as given in paper PMC3920478, “Small molecule-mediated refolding and activation of myosin motor function” (eLife, 2014).
“Also recorded” adds a separate entry of the source.

Experiments:
β-cardiac myosin S1 = target: T1, β-cardiac myosin S1 (Sus scrofa, UniProt P79293); experiment: Microscale thermophoresis direct binding; design: species or system Porcine
T1 construct: S1 and HMM fragments were produced by proteolytic digestion of the full-length proteins with 0.05 mg/ml papain; from tissue; host or cells: porcine cardiac muscle
Excerpt: Proteolytic fragments were further purified by actin-coprecipitation.

β-cardiac myosin = β-cardiac myosin (Sus scrofa, UniProt P79293); experiment: Steady-state basal and actin-activated Mg2+-ATPase (NADH-coupled assay); assay type: biochemical, Porcine; conditions: β-cardiac myosin S1, dose-dependence
Procedure: Rabbit fast skeletal muscle heavy meromyosin (HMM) was prepared as described by [Margossian and Lowey (1982)]. Porcine β-cardiac myosin was prepared essentially as described by [Pant et al. (2009)] and [Jacques et al. (2008)] and further purified by gel filtration. S1 and HMM fragments were produced by proteolytic digestion of the full-length proteins with 0.05 mg/ml papain (10 min, 25°C) for S1 and with 0.1 mg/ml TLCK-treated α-chymotrypsin (15 min, 25°C) for HMM. Reactions were stopped with specific protease inhibitors for papain (10 µM E−64) and chymotrypsin (10 µM chymostatin, 1 mM benzamidine). Proteolytic fragments were further purified by actin-coprecipitation. Pellets were washed twice and myosin was extracted from the pellets using ATP containing buffer. Gel filtration was used to further increase purity of myosin S1 and HMM fragments. His-tagged motor domain constructs of Dd myosin-2, Dd myosin-1B, Dd myosin-1C, Dd myosin-1D, Dd myosin-1E, Dd myosin-5b fused to two Dd α-actinin repeats substituting the light-chain binding domains ([Anson et al., 1996]) were expressed in Dd AX3-ORF + cells and purified by Ni^2+-chelate affinity chromatography ([Manstein and Hunt, 1995]).
Basal and actin-activated Mg^2+-ATPase activities were measured using the NADH-coupled assay described previously ([Furch et al., 1998]) adapted for higher throughput screens for a temperature controlled plate reader (Multiscan FC, Thermo Scientific, Waltham, MA) at 25°C. […] Control measurements were carried out in the absence of drug, as well as in the presence of according concentrations of the non-binding (−)-enantiomer EMD 57439 to account for possible absorption effects. […] Data points are mean values from 3 to 5 independent experiments. Error bars indicate standard deviations.

phosphodiesterase III = system: phosphodiesterase III; design: method as in Gambassi et al., 1993; conditions: ref Gambassi et al., 1993; cited from earlier work
F-actin = F-actin (UniProt P68135)

β-cardiac myosin, sequence (P79293 1-810 limits assumed): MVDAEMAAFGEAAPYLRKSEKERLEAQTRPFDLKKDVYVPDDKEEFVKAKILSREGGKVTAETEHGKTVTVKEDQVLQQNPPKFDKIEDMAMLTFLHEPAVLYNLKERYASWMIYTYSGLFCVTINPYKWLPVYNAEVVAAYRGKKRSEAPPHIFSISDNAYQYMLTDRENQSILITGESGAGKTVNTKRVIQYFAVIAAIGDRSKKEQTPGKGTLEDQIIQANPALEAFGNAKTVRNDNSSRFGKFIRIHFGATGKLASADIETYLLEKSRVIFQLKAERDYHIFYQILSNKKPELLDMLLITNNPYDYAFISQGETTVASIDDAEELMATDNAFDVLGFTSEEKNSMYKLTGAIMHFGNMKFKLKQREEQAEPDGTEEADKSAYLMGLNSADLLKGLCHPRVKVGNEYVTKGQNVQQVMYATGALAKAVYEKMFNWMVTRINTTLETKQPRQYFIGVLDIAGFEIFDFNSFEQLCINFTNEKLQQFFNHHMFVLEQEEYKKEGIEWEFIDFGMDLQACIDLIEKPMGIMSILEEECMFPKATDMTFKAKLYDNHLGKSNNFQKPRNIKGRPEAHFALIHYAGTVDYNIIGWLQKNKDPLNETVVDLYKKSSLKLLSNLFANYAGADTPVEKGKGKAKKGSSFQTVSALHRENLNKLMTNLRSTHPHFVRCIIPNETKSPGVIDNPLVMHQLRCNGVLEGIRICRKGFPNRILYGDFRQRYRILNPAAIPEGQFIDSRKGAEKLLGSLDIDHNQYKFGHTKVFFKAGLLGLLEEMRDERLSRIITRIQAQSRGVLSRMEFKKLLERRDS
T1 sequence (P79293 1-843 limits assumed): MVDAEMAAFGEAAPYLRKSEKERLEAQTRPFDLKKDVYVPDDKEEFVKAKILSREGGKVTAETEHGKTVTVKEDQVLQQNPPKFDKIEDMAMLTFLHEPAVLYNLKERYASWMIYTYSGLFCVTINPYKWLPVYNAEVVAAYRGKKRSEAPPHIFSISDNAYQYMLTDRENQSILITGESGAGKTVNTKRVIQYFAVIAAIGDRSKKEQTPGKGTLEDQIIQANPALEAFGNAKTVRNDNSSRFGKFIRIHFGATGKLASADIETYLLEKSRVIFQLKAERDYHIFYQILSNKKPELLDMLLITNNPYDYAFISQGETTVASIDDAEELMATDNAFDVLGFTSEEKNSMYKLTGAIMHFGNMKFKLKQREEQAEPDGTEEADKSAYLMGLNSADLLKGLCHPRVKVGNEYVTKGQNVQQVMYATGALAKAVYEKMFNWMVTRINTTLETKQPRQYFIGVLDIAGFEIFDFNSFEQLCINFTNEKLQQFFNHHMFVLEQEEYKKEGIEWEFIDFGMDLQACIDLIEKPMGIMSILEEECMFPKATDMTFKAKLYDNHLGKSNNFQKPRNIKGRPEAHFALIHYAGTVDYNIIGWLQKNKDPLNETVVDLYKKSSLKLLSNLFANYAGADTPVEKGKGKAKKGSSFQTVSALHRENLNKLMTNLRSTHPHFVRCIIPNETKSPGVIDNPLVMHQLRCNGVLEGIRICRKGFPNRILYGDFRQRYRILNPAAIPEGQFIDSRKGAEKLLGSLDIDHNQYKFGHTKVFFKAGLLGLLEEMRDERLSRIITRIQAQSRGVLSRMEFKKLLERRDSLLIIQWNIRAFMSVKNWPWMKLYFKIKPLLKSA

Compound | Binding (in words) (β-cardiac myosin S1) | Activation of the actin-activated ATPase (in words) (β-cardiac myosin) | Phosphodiesterase III inhibition (phosphodiesterase III) | K M(Actin): F-actin concentration for half-maximal activation of the steady-state ATPase, control without EMD 57033 (F-actin) | K M(Actin): F-actin concentration for half-maximal activation of the steady-state ATPase, with 25 µM EMD 57033 (F-actin) | kcat/K M(Actin) of the actin-activated ATPase, calculated ratio, control without EMD 57033 (F-actin) | kcat/K M(Actin) of the actin-activated ATPase, calculated ratio, with 25 µM EMD 57033 (F-actin)
COc1ccc(C(=O)N2CCCc3cc(C4=NNC(=O)SC4C)ccc32)cc1OC (stereo not shown) [EMD 57439] | Neither binding nor activation was observed | Neither binding nor activation was observed; also recorded: no activation | potent phosphodiesterase III inhibitor |  |  |  | 
β-cardiac myosin (from UniProt P79293 1-1935) (natural protein) |  |  |  | 36.8 µM | 3.6 µM | 3260 M⁻¹ s⁻¹ | 0.0528 µM^v1 s^−1
